B1: chicken vinculin domain 1 (Vd1; residues 1–258) (domain or fragment, UniProt P12003 1-258, looked up)
chain: MPVFHTRTIESILEPVAQQISHLVIMHEEGEVDGKAIPDLTAPVSAVQAAVSNLVRVGKETVQTTEDQILKRDMPPAFIKVENACTKLVRAAQMLQADPYSVPARDYLIDGSRGILSGTSDLLLTFDEAEVRKIIRVCKGILEYLTVAEVVETMEDLVTYTKNLGPGMTKMAKMIDERQQELTHQEHRVMLVNSMNTVKELLPVLISAMKIFVTTKNTKSQGIEEALKNRNFTVEKMSAEINEIIRVLQLTSWDEDAW
B2: talin 4-helix bundle (residues 1458–1584) (domain or fragment, mouse, UniProt P26039 1458-1584, looked up)
chain: QQGLVEPTQFARANQAIQMACQSLGEPGCTQAQVLSAATIVAKHTSALCNSCRLASARTANPTAKRQFVQSAKEVANSTANLVKTIKALDGDFTEENRAQCRAATAPLLEAVDNLSAFASNPEFSSV

How the values were obtained:
[1] = biological target: talin(1359–1659), talin 9-helix module (mouse, UniProt P26039 1359-1659); assay: SEC
[2] = biological target: B1; assay: SEC

Sequence of talin(1359–1659), talin 9-helix module (P26039 1359-1659): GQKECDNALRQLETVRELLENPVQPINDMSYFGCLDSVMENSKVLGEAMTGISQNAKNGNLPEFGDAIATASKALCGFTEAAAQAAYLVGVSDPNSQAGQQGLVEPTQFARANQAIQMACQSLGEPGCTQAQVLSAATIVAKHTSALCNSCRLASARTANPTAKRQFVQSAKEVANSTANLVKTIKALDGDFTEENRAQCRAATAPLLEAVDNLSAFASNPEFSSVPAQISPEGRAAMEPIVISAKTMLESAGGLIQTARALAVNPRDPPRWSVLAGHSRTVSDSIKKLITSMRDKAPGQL

| Binder | binding result [1] | binding result [2] |
| --- | --- | --- |
| B1 | binds |  |
| B2 |  | binds |
